Measured values reported in PMC7171142 (Scientific Reports, 2020).

Tests used:
[1] = target: Recombinant Ecto-PfRipr (D21-N1086), C-terminal His-tag (P. falciparum 3D7) (UniProt O97302); experiment: SPR; single-cycle kinetics, Biacore X100; recombinant PfRipr immobilised on a CM5 chip as ligand; analytes at 3.13, 6.25, 12.5, 25 and 50 nM, contact time 120 s, dissociation 180 s, last dissociation 3000 s
[2] = target: T1, Recombinant Ecto-PfRipr (D21-N1086), C-terminal His-tag (P. falciparum 3D7, UniProt O97302 21-1086); experiment: as above; conditions: both partners purified
[3] = target: T1, Recombinant Ecto-PfRipr (D21-N1086), …; experiment: SPR; single-cycle kinetics, Biacore X100; […], dissociation 180 s, […]; conditions: both partners purified

T1 sequence (O97302 21-1086): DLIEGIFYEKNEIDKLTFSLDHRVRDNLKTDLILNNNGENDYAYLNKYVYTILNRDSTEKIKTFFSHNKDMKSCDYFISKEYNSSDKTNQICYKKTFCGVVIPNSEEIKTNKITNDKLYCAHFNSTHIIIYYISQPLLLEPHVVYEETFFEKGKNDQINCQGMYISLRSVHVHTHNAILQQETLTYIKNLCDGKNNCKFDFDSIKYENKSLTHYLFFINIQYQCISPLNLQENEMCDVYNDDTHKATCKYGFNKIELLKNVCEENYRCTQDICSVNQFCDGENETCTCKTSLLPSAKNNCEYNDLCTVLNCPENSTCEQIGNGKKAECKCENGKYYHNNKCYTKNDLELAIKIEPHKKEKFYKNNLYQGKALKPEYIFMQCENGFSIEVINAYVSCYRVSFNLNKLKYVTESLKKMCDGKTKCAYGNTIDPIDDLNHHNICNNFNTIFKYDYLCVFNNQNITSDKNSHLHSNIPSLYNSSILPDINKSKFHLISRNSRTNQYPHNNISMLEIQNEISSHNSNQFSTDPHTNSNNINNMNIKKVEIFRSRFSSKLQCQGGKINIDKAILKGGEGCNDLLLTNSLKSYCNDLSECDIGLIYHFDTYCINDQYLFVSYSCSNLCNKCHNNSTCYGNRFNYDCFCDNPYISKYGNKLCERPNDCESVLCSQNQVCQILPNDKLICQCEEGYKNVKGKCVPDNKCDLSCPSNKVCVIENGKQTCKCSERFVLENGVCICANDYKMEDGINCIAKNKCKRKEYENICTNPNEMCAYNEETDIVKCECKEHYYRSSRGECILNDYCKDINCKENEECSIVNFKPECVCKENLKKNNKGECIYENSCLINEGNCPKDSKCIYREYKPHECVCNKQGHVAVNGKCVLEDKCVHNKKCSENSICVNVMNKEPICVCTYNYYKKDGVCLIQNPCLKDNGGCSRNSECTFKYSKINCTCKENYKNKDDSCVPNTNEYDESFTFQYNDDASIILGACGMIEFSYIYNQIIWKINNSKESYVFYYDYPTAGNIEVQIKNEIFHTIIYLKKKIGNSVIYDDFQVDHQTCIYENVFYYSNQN
Sequence of Recombinant Ecto-PfRipr (D21-N1086), C-terminal His-tag (P. falciparum 3D7) (O97302 21-1086): as above

Molecule	Kd [2] [nM]	koff [2] [s⁻¹]	kon [2] [M⁻¹ s⁻¹]	further results
GST-fused recombinant NPTN (Q29-L221) with C-terminal His-tag (domain or fragment)				Kd [1]: 24 nM; koff [1]: 6.5e-05 s⁻¹; kon [1]: 2700 M⁻¹ s⁻¹
Recombinant Rh5 (E26-Q526), released from GST by TEV protease (domain or fragment) ENAIKKTKNQENNLTLLPIKSTEEEKDDIKNGKDIKKEIDNDKENIKTNNAKDHSTYIKSYLNTNVNDGLKYLFIPSHNSFIKKYSVFNQINDGMLLNEKNDVKNNEDYKNVDYKNVNFLQYHFKELSNYNIANSIDILQEKEGHLDFVIIPHYTFLDYYKHLSYNSIYHKSSTYGKCIAVDAFIKKINETYDKVKSKCNDIKNDLIATIKKLEHPYDINNKNDDSYRYDISEEIDDKSEETDDETEEVEDSIQDTDSNHTPSNKKKNDLMNRTFKKMMDEYNTKKKKLIKCIKNHENDFNKICMDMKNYGTNLFEQLSCYNNNFCNTNGIRYHYDEYIHKLILSVKSKNLNKDLSDMTNILQQSELLLTNLNKKMGSYIYIDTIKFIHKEMKHIFNRIEYHTKIINDKTKIIQDKIKLNIWRTFQKDELLKRILDMSNEYSLFITSDHLRQMLYNTFYSKEKHLNNIFHHLIYVLQMKFNDVPIKMEYFQTYKKNKPLTQ	0.48	2.9e-05	61000	
GST-fused recombinant AMIGO2 (M1-N397) with C-terminal His-tag (domain or fragment, human, UniProt Q86SJ2 1-397, looked up) MSLRVHTLPTLLGAVVRPGCRELLCLLMITVTVGPGASGVCPTACICATDIVSCTNKNLSKVPGNLFRLIKRLDLSYNRIGLLDSEWIPVSFAKLNTLILRHNNITSISTGSFSTTPNLKCLDLSSNKLKTVKNAVFQELKVLEVLLLYNNHISYLDPSAFGGLSQLQKLYLSGNFLTQFPMDLYVGRFKLAELMFLDVSYNRIPSMPMHHINLVPGKQLRGIYLHGNPFVCDCSLYSLLVFWYRRHFSSVMDFKNDYTCRLWSDSRHSRQVLLLQDSFMNCSDSIINGSFRALGFIHEAQVGERLMVHCDSKTGNANTDFIWVGPDNRLLEPDKEMENFYVFHNGSLVIESPRFEDAGVYSCIAMNKQRLLNETVDVTINVSNFTVSRSHAHEAFN	0.16	2e-05	120000	
GST-fused recombinant CyRPA (N27-E362) with C-terminal His-tag (domain or fragment) NCDSRHVFIRTELSFIKNNVPCIRDMFFIYKRELYNICLDDLKGEEDETHIYVQKKVKDSWITLNDLFKETDLTGRPHIFAYVDVEEIIILLCEDEEFSNRKKDMTCHRFYSNDGKEYNNSEITISDYILKDKLLSSYVSLPLKIENREYFLICGVSPYKFKDDNKKDDILCMASHDKGETWGTKIVIKYDNYKLGVQYFFLRPYISKNDLSFHFYVGDNINNVKNVNFIECTHEKDLEFVCSNRDFLKDNKVLQDVSTLNDEYIVSYGNDNNFAECYIFFNNENSILIKPEKYGNTTAGCYGGTFVKIDENRTLFIYSSSQGIYNIHTIYYANYE				Kd [3]: 69 nM; koff [3]: 0.00016 s⁻¹; kon [3]: 2400 M⁻¹ s⁻¹
GST-fused recombinant SEMA7A (Q45-H666) with C-terminal His-tag (domain or fragment, human, UniProt O75326 45-666, looked up) QGHLRSGPRIFAVWKGHVGQDRVDFGQTEPHTVLFHEPGSSSVWVGGRGKVYLFDFPEGKNASVRTVNIGSTKGSCLDKRDCENYITLLERRSEGLLACGTNARHPSCWNLVNGTVVPLGEMRGYAPFSPDENSLVLFEGDEVYSTIRKQEYNGKIPRFRRIRGESELYTSDTVMQNPQFIKATIVHQDQAYDDKIYYFFREDNPDKNPEAPLNVSRVAQLCRGDQGGESSLSVSKWNTFLKAMLVCSDAATNKNFNRLQDVFLLPDPSGQWRDTRVYGVFSNPWNYSAVCVYSLGDIDKVFRTSSLKGYHSSLPNPRPGKCLPDQQPIPTETFQVADRHPEVAQRVEPMGPLKTPLFHSKYHYQKVAVHRMQASHGETFHVLYLTTDRGTIHKVVEPGEQEHSFAFNIMEIQPFRRAAAIQTMSLDAERRKLYVSSQWEVSQVPLDLCEVYGGGCHGCLMSRDPYCGWDQGRCISIYSSERSVLQSINPAEPHKECPNPKPDKAPLQKVSLAPNSRYYLSCPMESRHATYSWRHKENVEQSCEPGHQSPNCILFIENLTAQQYGHYFCEAQEGSYFREAQHWQLLPEDGIMAEHLLGHACALAASLWLGVLPTLTLGLLVH	0.94	4.1e-05	44000	
